Data on 15 molecules can be found in patent publication US7235648B1, “Yeast cells engineered to produce pheromone system protein surrogates, and uses therefor” (Cadus Technologies, Inc., priority 1993, dated 2007).

Sequences and labels used below:
B1: GPA41-Gαoa: first 41 amino acids of GPA1 fused to Gαoa (protein)
chain: MGCTVSTQTIGDESDPFLQNKRANDVIEQSLQLEKQRDKNEVKLLLLGAGESGKSTIVKQMKIIHEDGFSGEDVKQYKPVVYSNTIQSLAAIVRAMDTLGIEYGDKERKADAKMVCDVVSRMEDTEPFSAELLSAMMRLWGDSGIQECFNRSREYQLNDSAKYYLDSLDRIGAADYQPTEQDILRTRVKTTGIVETHFTFKNLHFRLFDVGGQRSERKKWIHCFEDVTAIIFCVALSGYDQVLHEDETTNRMHESLMLFDSICNNKFFIDTSIILFLNKKDLFGEKIKKSPLTICFPEYTGPNTYEDAAAYIQAQFESKNRSPNKEIYCHMTCATDTNNIQVVFDAVTDIIIANNLRGCGLY
B2: GPA141-Gαi3: first 41 amino acids of GPA1 fused to human Gαi3 (protein)
chain: MGCTVSTQTIGDESDPFLQNKRANDVIEQSLQLEKQRDKNEVKLLLLGAGESGKSTIVKQMKIIHE
B3: GPA41-Gα16: first 41 amino acids of GPA1 fused to Gα16 (protein)
chain: MGCTVSTQTIGDESDPFLQNKRANDVIEQSLQLEKQRDKNELKLLLLGPGESGKSTFIKQMRIIHG
B4: GPA41-Gαob: first 41 amino acids of GPA1 fused to Gαob (protein)
chain: MGCTVSTQTIGDESDPFLQNKRANDVIEQSLQLEKQRDKNEVKLLLLGAGESGKSTIVKQMKIIHEDGFSGEDVKQYKPVVYSNTIQSLAAIVRAMDTLGIEYGDKERKADAKMVCDVVSRMEDTEPFSAELLSAMMRLWGDSGIQECFNRSREYQLNDSAKYYLDSLDRIGAADYQPTEQDILRTRVKTTGIVETHFTFKNLHFRLFDVGGQRSERKKWIHCFEDVTAIIFCVALSGYDQVLHEDETTNRMHESLKLFDSICNNKWFTDTSIILFLNKKDIFEEKIKKSPLTICFPEYTGPSAFTEAVAYIQAQYESKNKSAHKEIYTHVTCATDTNNIQFVFDAVTDVIIAKNLRGCGLY

Ends that are not written are not given here.

The target in the first assay is T1, STE2 receptor (Saccharomyces cerevisiae, UniProt D6VTK4).
T1 construct: endogenous in cells; host or cells: S. cerevisiae MATa CY588 / CY1455
T1 sequence (D6VTK4 1-431): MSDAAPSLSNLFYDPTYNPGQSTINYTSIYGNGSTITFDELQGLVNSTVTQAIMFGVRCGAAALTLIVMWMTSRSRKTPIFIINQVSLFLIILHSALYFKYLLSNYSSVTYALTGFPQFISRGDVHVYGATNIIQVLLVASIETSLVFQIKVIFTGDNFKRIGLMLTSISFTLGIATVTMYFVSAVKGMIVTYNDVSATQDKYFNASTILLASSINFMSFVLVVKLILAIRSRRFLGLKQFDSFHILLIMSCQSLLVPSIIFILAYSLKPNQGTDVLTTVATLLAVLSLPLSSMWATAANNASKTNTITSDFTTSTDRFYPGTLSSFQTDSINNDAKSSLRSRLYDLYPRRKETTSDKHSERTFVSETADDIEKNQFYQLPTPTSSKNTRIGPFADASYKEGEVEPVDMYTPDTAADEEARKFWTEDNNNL
In words: Autocrine MATa yeast (CY588/CY1455) growth on histidine-deficient medium plus aminotriazole, fus1-HIS3 readout. It counts as cell-based. The note with it: CY588 transformed with Cadus 1219; range of aminotriazole concentrations. The source says:
A MATa strain designed for the expression of peptides in the context of MFα1 (i.e., using the MFα1 expression vector. Cadus 1215) has been constructed. The genotype of this strain, which we designate CY588, is MATa bar1 far1-1 fus1-HIS3 ste14::TRP1 ura3 trp1 leu2 his3. The bar1 mutation eliminates the strain's ability to produce a protease that degrades α-factor and that may degrade some peptides encoded by the cloned oligonucleotides; the far1 mutation abrogates the arrest of growth which normally follows stimulation of the pheromone response pathway; an integrated FUS1-HIS3 hybrid gene provides a selectable signal of activation of the pheromone response pathway; and, finally, the ste14 mutation lowers background of the FUS1-HIS3 readout. The enzymes responsible for processing of the MFα1 precursor in MATα cells are also expressed in MATa cells (Sprague and Thorner, in The Molecular and Cellular Biology of the Yeast Saccharomyces: Gene Expression, 1992. Cold Spring Harbor Press), therefore, CY588 cells should be able to secrete peptides encoded by oligonucleotides expressed from plasmid Cadus 1215.
Experiments were performed to test: 1. the ability of Cadus 1215 to function as a vector for the expression of peptides encoded by synthetic oligonucleotides; 2. the suitability of the oligonucleotides, as designed, to direct the secretion of peptides through the α-factor secretory pathway; 3. the capacity of CY588 to secrete those peptides; and 4. the ability of CY588 to respond to those peptides that stimulate the pheromone response pathway by growing on selective media. These experi-ments were performed using an oligonucleotide which encodes the 13 amino acid α-factor; i.e., the degenerate sequence (NNN)n in the oligonucleotide cloned into Cadus 1215 (see above) was specified (n=13) to encode this pheromone. CY588 was transformed with the resulting plasmid (Cadus 1219), and transformants selected on uracil-deficient medium were transferred to histidine-deficient medium supplemented with a range of concentrations of aminotriazole (an inhibitor of the HIS3 gene product that serves to reduce background growth). […] CY588 is competent for the secretion of a peptide encoded by the (NNN)n sequence of the synthetic oligonucleotide cloned into and expressed from Cadus 1215; and 2. CY588 can, in an autocrine fashion, respond to a secreted peptide which stimulates its pheromone response pathway, in this case by α-factor binding to STE2. Additional experiments were performed to test the utility of autocrine yeast strains in identifying agonists of the Ste2 receptor from among members of two semi-random α-factor libraries, α-Mid-5 and MFα-8. α-Mid-5 Library
To identity peptide members of the α-Mid-5 library that could act as agonists on the STE2 receptor. CY1455, a high transforming version of CY588, was electroporated to enhance uptake of α-Mid-5 DNA. Transformants were selected on uracil-deficient (-Ura) synthetic complete medium and were transferred to histidine-deficient (-His) synthetic complete medium supplemented with 0.5 mM or 1 mM aminotriazole.
Yeast able to grow on -His+aminotriazole medium include (1) yeast which are dependent on the expression of an α-factor variant agonist and (2) yeast which contain mutations that result in constitutive signalling along the pheromone pathway. […] Thus a recognizable formation (termed a “starburst”) results, consisting of a central colony, growing by virtue of autocrine stimulation of the pheromone pathway, surrounded by satellite colonies, growing by virtue of paracrine stimulation of the pheromone pathway by the agonist peptide as that ptpetide diffuses radially fromn the central, secreting colony.
In order to identify the peptide sequence responsible for this “starburst” phenomenon, yeast were transferred from the center of the “starburst” and streaks were made on -Ura medium to obtain single colonies. […]
In the case of “Trp His Trp Leu Gln Leu Lys Pro Gly Gln Pro Met Tyr (chain 1 WHWLQLKPGQPMY; chain 2 WHWLQLKPGQPMY) [α-factor, yeast tridecapeptide mating pheromone, reference compound]”, the “ability to grow on histidine-deficient media supplemented with aminotriazole (autocrine response, α-factor binding to STE2)” value is recorded as “ability to grow on histidine-deficient media supplemented with aminotriazole”.

Staying with this assay, now noted: CY1455; -His medium with 0.5 mM or 1 mM aminotriazole; starburst phenotype.
For the molecule WHWLSLYPGQPMY [M8], the “agonist activity on the STE2 receptor, α-Mid-5 library” value (from here on “agonist activity on the STE2 receptor”) is “agonists”. The same measure, in the same setting: as for WHWLRLQPGQPMY [M9], the entry is “agonists”.

As for WHWLSLSPGQPMY [M1], the “agonist activity on the STE2 receptor” value is “agonists”.

As for WHWLRLQSGQPMY [M5], the “agonist activity on the STE2 receptor” value is reported as “agonists”. The same measure, in the same setting: the result for WHWLSLVPGQPMY [M7] reads “agonists”; that for WHWLQLSAGQPMY [M4], “agonists”. Same read-out and setting: as for WHWLSLDAGQPMY [M2], the entry is “agonists”; as for WHWLRLSAGQPMY [M6], “agonists”.

On to “Trp His Tip Leu Thr Leu MetAla Gly Gin Pro Met Tyr (WHWLTLMAGQPMY) [M3]”, for which the “agonist activity on the STE2 receptor” value is on record as “agonists”.

The target in the next assay is T2, yeast Gβγ (Saccharomyces cerevisiae, UniProt P18851+P18852).
T2 construct: Endogenous Gβγ subunits will be provided by the yeast STE4 and STE18 loci; endogenous in cells; host or cells: S. cerevisiae gpa1 tester strains
T2 sequence (P18851 1-423): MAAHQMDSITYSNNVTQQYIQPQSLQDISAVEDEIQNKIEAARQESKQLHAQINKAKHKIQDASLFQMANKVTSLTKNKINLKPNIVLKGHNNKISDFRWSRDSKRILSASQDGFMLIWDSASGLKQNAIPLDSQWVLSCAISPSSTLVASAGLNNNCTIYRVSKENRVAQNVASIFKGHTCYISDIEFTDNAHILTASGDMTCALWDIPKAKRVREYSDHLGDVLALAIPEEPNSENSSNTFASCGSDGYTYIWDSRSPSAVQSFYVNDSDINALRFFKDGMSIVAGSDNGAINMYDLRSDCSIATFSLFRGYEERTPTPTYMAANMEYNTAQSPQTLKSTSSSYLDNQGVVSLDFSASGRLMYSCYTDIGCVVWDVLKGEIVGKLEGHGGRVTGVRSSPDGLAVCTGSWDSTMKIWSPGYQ
T2 sequence (P18852 1-107 limits assumed): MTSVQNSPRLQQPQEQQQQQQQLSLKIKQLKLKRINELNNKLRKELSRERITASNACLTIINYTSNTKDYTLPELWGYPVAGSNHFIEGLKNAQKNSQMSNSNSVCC
In words: Coupling of Gα subunits and hybrids to yeast Gβγ: complementation of gpa1 growth arrest phenotype and fus1-HIS3 transcription.
Conditions: not given
It counts as cell-based. The source says:
We have tested the hypothesis that there are switch region determinants involved in the association of Gα with Gβγ by constructing a series of hybrid Gα proteins encoding portions of GPA1 and GαS in different combinations (FIG. 11).
Preferably, levels of Gα and Gβγ subunits are balanced. For example, heterologous Gα subunits may be expressed from a low copy (CEN ARS) vector containing the endogenous yeast GPA1 promotor and the GPA1 3′ untranslated region. The minimum criterion, applied to a heterologous Gα subunit with respect to its ability to couple functionally to the yeast pheromone pathway, is that it complement a gpa1 genotype when expressed from the GPA1 promoter on low copy plasmids or from an integrated, single copy gene. In the work described in this application, all heterologous Gα subunits have been assayed in two biological systems.
Take “GPA41-S: N-terminal 41 amino acids of GPA1 linked to Gαs sequence 42-394”: the “functional complementation of the growth arrest phenotype of gpa1 strains” value is on record as “functionally complement”. Still for that read-out and setting: the result for B1 reads “do not”; that for B2, “functionally complement”. The same measure, in the same setting: the result for B3 reads “functionally complement”; that for B4, “do not”.
